{"source": "paper PMC9169775", "about": "“Structural conservation among variants of the SARS-CoV-2 spike postfusion bundle” (Proceedings of the National Academy of Sciences of the …, 2022)", "proteins": {"B1": {"name": "Dps4 from Nostoc punctiforme (NpDps4), scaffold alone (natural protein)", "chain": "ETQTLLRNFGNVYDNPVLLDRSVTAPVTEGFNVVLASFQALYLQYQKHHFVVEGSEFYSLHEFFNESYNQVQDHIHEIGERLDGLGGVPVATFSKLAELTCFEQESEGVYSSRQMVENDLAAEQAIIGVIRRQAAQAESLGDRGTRYLYEKILLKTEERAYHLSHFLAKDSLTLGFVQAA", "notes": "Dps4 from Nostoc punctiforme (NpDps4); Construct details in SI Appendix, Supplementary Notes; also called the scaffold alone; source: E. coli BL21(DE3), purified (Ni-NTA, SEC); copies: 12"}}, "target": "the molecule itself", "assay": "SDS-PAGE with or without boiling (SDS-resistant oligomer); purified scaffolded HR1HR2 bundle and scaffold alone, with or without boiling"}
{"protein": "B1", "values": [{"measurement": "stoichiometry N", "result": 12}]}
